Experimental data taken from article PMC4014986.
Like-named read-outs stand apart in the source and are kept apart here.

Columns and labels:
[1] = target: Actin filaments (F-actin) from rabbit skeletal muscle (rabbit) (UniProt P68135)
[2] = target: Actin filaments (F-actin) from rabbit skeletal muscle (rabbit) (UniProt P68135); remark: listed apart in the source
[3] = target: Actin filaments (F-actin) from rabbit skeletal muscle (rabbit) (UniProt P68135); remark: listed apart in the source

Myosin 5c subfragment 1 (Myo5c-S1, 1-785 amino acids), sequence (Q9NQX4 1-785): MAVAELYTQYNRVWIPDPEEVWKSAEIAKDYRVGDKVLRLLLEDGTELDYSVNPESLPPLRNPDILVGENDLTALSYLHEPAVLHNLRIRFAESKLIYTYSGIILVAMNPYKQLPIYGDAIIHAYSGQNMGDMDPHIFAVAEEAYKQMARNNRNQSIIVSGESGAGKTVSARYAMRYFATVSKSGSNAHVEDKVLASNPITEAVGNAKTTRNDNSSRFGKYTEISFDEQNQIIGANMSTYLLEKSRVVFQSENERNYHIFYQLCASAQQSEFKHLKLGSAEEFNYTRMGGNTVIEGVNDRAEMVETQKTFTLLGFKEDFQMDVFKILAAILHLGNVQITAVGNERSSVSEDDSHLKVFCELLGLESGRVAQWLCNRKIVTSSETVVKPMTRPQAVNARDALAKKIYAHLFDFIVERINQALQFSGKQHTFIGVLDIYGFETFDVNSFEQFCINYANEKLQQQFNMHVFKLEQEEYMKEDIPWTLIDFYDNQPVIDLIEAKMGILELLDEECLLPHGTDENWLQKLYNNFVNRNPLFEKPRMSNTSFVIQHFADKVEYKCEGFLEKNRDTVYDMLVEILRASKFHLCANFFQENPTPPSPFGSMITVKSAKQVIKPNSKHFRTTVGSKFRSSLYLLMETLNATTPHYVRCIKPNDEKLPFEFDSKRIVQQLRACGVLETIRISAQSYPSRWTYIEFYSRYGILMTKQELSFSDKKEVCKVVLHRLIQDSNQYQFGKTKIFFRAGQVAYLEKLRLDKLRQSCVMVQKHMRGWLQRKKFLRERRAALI

Myosin 5c subfragment 1 (Myo5c-S1, 1-785 amino acids) (from UniProt Q9NQX4 1-785) (domain or fragment)
half-maximum value (Kact) of the phosphate dissociation rate against F-actin concentration (MDCC-PBP, double-mixing stopped flow) [1]: 14.6 µM
K (ATPase) of the steady-state actin-activated ATPase (NADH-coupled assay) [2]: 26 µM
K (ATPase) of the steady-state actin-activated ATPase (NADH-coupled assay) [3]: 35 µM
